Reference: patent US20240317847A1 (Bayer, published 2024)
Read-outs that look alike come from different tables or passages of the source.

T1: murine IL-11 (mouse, UniProt P47873 22-199)
T1 construct: bought from Invigate; also called mIL-11; mIL11
T1 sequence: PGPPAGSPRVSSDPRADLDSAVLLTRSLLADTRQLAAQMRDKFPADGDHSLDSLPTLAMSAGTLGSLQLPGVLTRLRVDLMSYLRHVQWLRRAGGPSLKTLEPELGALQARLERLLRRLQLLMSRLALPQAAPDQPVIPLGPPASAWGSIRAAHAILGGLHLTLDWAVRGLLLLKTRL

T2: human IL-11 (human, UniProt P20809 22-199)
T2 construct: bought from Invigate; also called hIL-11; hIL11
T2 sequence: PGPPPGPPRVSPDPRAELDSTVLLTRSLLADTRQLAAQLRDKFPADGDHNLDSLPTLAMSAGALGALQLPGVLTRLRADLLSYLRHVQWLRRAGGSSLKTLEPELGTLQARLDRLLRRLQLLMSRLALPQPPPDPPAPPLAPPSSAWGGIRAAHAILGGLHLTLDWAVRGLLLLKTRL

T3: murine IL-11 (mouse, UniProt P47873 22-199)
T3 sequence: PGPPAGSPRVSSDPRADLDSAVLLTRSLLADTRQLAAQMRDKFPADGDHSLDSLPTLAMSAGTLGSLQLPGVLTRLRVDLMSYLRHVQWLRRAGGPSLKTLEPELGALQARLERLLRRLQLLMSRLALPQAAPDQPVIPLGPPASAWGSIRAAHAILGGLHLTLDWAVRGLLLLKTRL

T4: human IL-11 (human, UniProt P20809 22-199)
T4 sequence: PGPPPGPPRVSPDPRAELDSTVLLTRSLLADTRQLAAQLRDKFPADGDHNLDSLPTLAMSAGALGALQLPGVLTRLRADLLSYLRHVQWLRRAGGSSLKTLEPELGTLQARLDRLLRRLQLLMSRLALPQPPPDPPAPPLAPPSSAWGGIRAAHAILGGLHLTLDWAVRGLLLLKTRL

T5: cynomolgus IL-11 (cynomolgus, UniProt P20808 22-199)
T5 sequence: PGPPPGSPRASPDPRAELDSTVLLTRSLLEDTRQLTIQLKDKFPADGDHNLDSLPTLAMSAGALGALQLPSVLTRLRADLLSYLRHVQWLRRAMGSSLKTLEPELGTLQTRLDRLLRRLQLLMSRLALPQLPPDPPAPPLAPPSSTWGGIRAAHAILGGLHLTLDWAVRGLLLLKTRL

T6: rat IL-11 (rat, UniProt Q99MF5 22-199)
T6 sequence: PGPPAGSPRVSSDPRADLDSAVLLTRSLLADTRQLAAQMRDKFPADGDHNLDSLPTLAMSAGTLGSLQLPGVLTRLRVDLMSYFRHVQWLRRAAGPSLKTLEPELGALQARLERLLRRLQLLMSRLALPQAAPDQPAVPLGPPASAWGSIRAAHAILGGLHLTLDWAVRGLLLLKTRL


Assays:
murine IL-11 [1] = molecular target: T1, murine IL-11; test: SPR, antibody captured, IL-11 as analyte
Procedure: (§1) Antibodies were captured via anti-mouse Fc IgGs (“Mouse antibody capture kit, Order No. BR100383, Cytiva) covalently amine coupled to a Series S CM5 sensor chip (Cytiva). The amine coupling was carried out according to the manufacturer's instructions using 1-ethyl-3-(3-dimethylaminopropyl) carbodiimide hydrochloride (EDC), N-hydroxysuccinimide (NHS) and ethanolamine HCl, pH 8.5 (“Amine Coupling Kit” BR-1000-50, Cytiva.). Human IL-11 (Invigate, e.g., lot #C121021-19), and murine IL-11 (Invigate, e.g., lot #C210819-09) were used as analytes. […] Based on that experiment an IL-11 concentration range was chosen to optimally determine kinetics and affinity of anti-IL-11 antibodies in multicycle kinetics mode. The sensor surface was regenerated with glycine pH 1.7 after each antigen injection. Obtained sensorgrams were double referenced (subtraction of reference flow cell signal and buffer injection) and were fitted to a 1:1 Langmuir binding model to derive kinetic data using the Biacore T200 Evaluation software or the Biacore Insight software.
(§2) For the 2nd round of germlining, single reversions were then combined on DNA level, expressed and purified as described in Example 15, and tested by SPR as described in Example 16.

human IL-11 [2] = molecular target: T2, human IL-11; test: SPR, antibody captured, IL-11 as analyte
Procedure: as §1, §2

murine IL-11 [3] = molecular target: T1, murine IL-11; test: cell-based or functional assay
human IL-11 [4] = molecular target: T2, human IL-11; test: cell-based or functional assay
murine IL-11 [5] = molecular target: T3, murine IL-11; test: cell-based or functional assay; remark: listed apart in the source
human IL-11 [6] = molecular target: T4, human IL-11; test: cell-based or functional assay; remark: listed apart in the source
cynomolgus IL-11 = molecular target: T5, cynomolgus IL-11; test: cell-based or functional assay
rat IL-11 = molecular target: T6, rat IL-11; test: cell-based or functional assay
murine IL-11 [7] = molecular target: T3, murine IL-11; test: cell-based or functional assay; remark: listed apart in the source
human IL-11 [8] = molecular target: T4, human IL-11; test: cell-based or functional assay; remark: listed apart in the source
human IL-11 [9] = molecular target: T4, human IL-11; test: Tri-complex ELISA, hIL-11 + mIL-11Ra-Fc + hgp130-Fc, inhibition of complex formation
Procedure: In the Tri-complex ELISA format IL-11 antibodies are tested for their ability to inhibit the formation of a complex consisting of murine or human gp130-Fc fusion protein, with murine or human IL-11, and a murine IL11RA-Fc fusion protein. The assay format was adapted according to FIG. 18 (a, b), depending on whether murine or human IL-11 IgG antibodies were tested.
(§3) IgG converted antibodies were subjected to the experimental assay procedure described in Example 19 and IC50 [M], respectively efficacy (%) were calculated accordingly.

murine IL-11 [10] = molecular target: T3, murine IL-11; test: Tri-complex ELISA, mIL-11 + mIL-11Ra-Fc + mgp130-Fc, inhibition of complex formation
Procedure: In a first step, 25 μl of goat anti human IgG (Sigma, #12136), diluted 1:1000 in coating buffer (Candor, #121125) was coated on the plate at 4° C. overnight. Next day, the plate was washed one time with 50 μl PBST and then blocked with 50 μl SmartBlock (Candor, #113125) for one hour at room temperature (RT). […] After three additional washes of the coated and blocked microtiter plate with PBS-T, 25 μl of each mixture were added and the assay plate was incubated for one hour at room temperature. After three additional washes, anti-mouse-gp130 biotinylated antibody (R&D, #BAF468) or anti-human gp130 biotinylated antibody (R&D, #BAF228), both 1:1000 in 10% SmartBlock PBS-T, was added and incubated for 1 hour at RT. After three additional washes, a Streptavidin-Peroxidase conjugate (Sigma, #S5512) 1:1000 in SmartBlock PBS-T was added and incubated for one hour at room temperature. After a final three washes, AmplexRed (Fisher Scientific, A12222), 1/1000 in PBS, 0,003% H₂O₂, was added as substrate and incubated for 15 min at RT in the dark. Then, the fluorescence was measured with a plate reader at 535/595 nm. Signals from dose responses were used to calculate IC50 values using GraphPad Prism software. Efficacy was calculated as [(signal measured at lowest antibody concentration−signal measured at the highest antibody concentration)×100] divided by (signal measured at lowest antibody concentration−signal measured in the absence of antibody at an IL11 concentration of 8.2E-11 [M]).
as §3

| Kd (murine IL-11 [1]) [µM] | Kd (human IL-11 [2]) [µM] | Efficacy (%), RGA (murine IL-11 [3]) [%] | IC50, RGA (murine IL-11 [3]) [µM] | Efficacy (%), RGA (human IL-11 [4]) [%] | IC50, RGA (human IL-11 [4]) [µM] | Binder | other results |
| --- | --- | --- | --- | --- | --- | --- | --- |
| 0.0011 | 0.0054 | 82.4 | 0.0019 | 43.2 | 0.019 | TPP-27159 (antibody, human IgG1, lambda, V domains shown, hIgG1, Lambda) VH: EVQLLESGGGLVQPGGSLRLSCAASGFTFSSYGMHWVRQAPGKGLEWVAVISYDGSYKYYADSVKGRFTISRDNSKNTLYLQMNSLRAEDTAVYYCAAGVPDYWGQGTLVTVSS VL: not shown | – |
| 0.056 | 0.18 | 63.8 | 0.01 | -2.8 | – | TPP-27160 (antibody, V domains shown) VH: EVQLLESGGGLVQPGGSLRLSCAASGFTFSSYGMHWVRQAPGKGLEWVAVISYDGSYKYYADSVKGRFTISRDNSKNTLYLQMNSLRAEDTAVYYCAAGVPDYWGQGTLVTVSS VL: QSVLTQPPSASGTPGQRVTISCSGSSSNIGSGYDVHWYQQLPGTAPKLLIYDNNERPSGVPDRFSGSKSGTSASLAISGLRSEDEADYYCAAWDDSLSGPVFGGGTKLTVL | – |
| 0.0032 | 0.0074 | 77.6 | 0.0033 | 36 | 0.091 | TPP-27162 (antibody, V domains shown) VH: EVQLLESGGGLVQPGGSLRLSCAASGFTFSSYGMHWVRQAPGKGLEWVAVISYDGSYKYYADSVKGRFTISRDNSKNTLYLQMNSLRAEDTAVYYCAAGVPDYWGQGTLVTVSS VL: not shown | – |
| 0.028 | 0.012 | 52.3 | 0.052 | 2.9 | – | TPP-27163 (antibody, V domains shown) VH: EVQLLESGGGLVQPGGSLRLSCAASGFTFSSYGMHWVRQAPGKGLEWVAVISYDGSYKYYADSVKGRFTISRDNSKNTLYLQMNSLRAEDTAVYYCAAGVPDYWGQGTLVTVSS VL: not shown | – |
| – | – | – | – | – | – | TPP-23552 (antibody, human IgG1, kappa, hIgG1, Kappa; also called BSN 3C6 (WO2019238882)) heavy: not shown light: DIVLTQSPASLALSPGERATLSCRASKSVSTSGYSYIHWYQQKPGQPPRLLIYLASNLDSGVPARFSGSGSGTDFTLNIHPLEEEDFATYYCQHSRDLPPTFGQGTKLEIKRTVAAPSVFIFPPSDEQLKSGTASVVCLLNNFYPREAKVQWKVDNALQSGNSQESVTEQDSKDSTYSLSSTLTLSKADYEKHKVYACEVTHQGLSSPVTKSFNRGEC | Efficacy (%), Stat3 reporter gene assay (murine IL-11 [5]): 90.9%; IC50, Stat3 reporter gene assay (murine IL-11 [5]): 0.0081 µM; Efficacy (%), Stat3 reporter gene assay (human IL-11 [6]): 76.7%; IC50, Stat3 reporter gene assay (human IL-11 [6]): 0.0037 µM; Efficacy (%), Stat3 reporter gene assay (cynomolgus IL-11): 52.4%; Efficacy (%), Stat3 reporter gene assay (rat IL-11): 81.3%; IC50, Stat3 reporter gene assay (rat IL-11): 0.0088 µM; Efficacy (%), Stat3 reporter gene assay (murine IL-11 [7]): 76%; IC50, Stat3 reporter gene assay (murine IL-11 [7]): 0.022 µM; Efficacy (%), Stat3 reporter gene assay (human IL-11 [8]): 87.9%; IC50, Stat3 reporter gene assay (human IL-11 [8]): 0.018 µM; Efficacy (%) (human IL-11 [9]): 90.6%; IC50 (human IL-11 [9]): 0.0068 µM; Efficacy (%) (murine IL-11 [10]): 90.7%; IC50 (murine IL-11 [10]): 0.023 µM |
